{"source": "paper PMC7174398", "about": "(Nature Communications, 2020)", "key": {"[1]": {"molecular_target": "the molecule itself", "assay": "SEC-MALS; mHsp60 with mHsp10, pre-incubated with 1 mM ATP for 5 min; Superose-6, ~25 C"}, "[2]": {"molecular_target": "the molecule itself", "assay": "SEC-MALS; mHsp60 (WT or variant) with mHsp10, pre-incubated with 1 mM ATP, 1 mM BeCl2 and 10 mM NaF for 5 min; Superose-6, ~25 C"}}, "data": [{"protein": "wild-type human mitochondrial Hsp60 (mHsp60) (natural protein, residues left at the N-terminus after TEV cleavage and removal of the HisTag; human mitochondrial Hsp60 (mt-cpn60); Oligomeric state depends on nucleotide and concentration: monomers, heptameric single rings, tetradecameric double rings; also called WT mHsp60; mt-cpn60; source: E. coli Rosetta, purified (nickel-agarose, TEV cleavage, anion exchange, oligomerised with ATP, Superdex 200); not …) GSAKDVKFGADARALMLQGVDLLADAVAVTMGPKGRTVIIEQSWGSPKVTKDGVTVAKSIDLKDKYKNIGAKLVQDVANNTNEEAGDGTTTATVLARSIAKEGFEKISKGANPVEIRRGVMLAVDAVIAELKKQSKPVTTPEEIAQVATISANGDKEIGNIISDAMKKVGRKGVITVKDGKTLNDELEIIEGMKFDRGYISPYFINTSKGQKCEFQDAYVLLSEKKISSIQSIVPALEIANAHRKPLVIIAEDVDGEALSTLVLNRLKVGLQVVAVKAPGFGDNRKNQLKDMAIATGGAVFGEEGLTLNLEDVQPHDLGKVGEVIVTKDDAMLLKGKGDKAQIEKRIQEIIEQLDVTTSEYEKEKLNERLAKLSDGVAVLKVGGTSDVEVNEKKDRVTDALNATRAAVEEGIVLGGGCALLRCIPALDSLTPANEDQKIGIEIIKRTLKIPAMTIAKNAGVEGSLIVEKIMQSSSEVGYDAMAGDFVNMVEKGIIDPTKVVRTALLDAAGVASLLTTAEVVVTEIPKEEKDPGMGAMGGMGGGMGGGMF", "values": [{"measurement": "stoichiometry N", "setting": "[1]", "result": 7}, {"measurement": "stoichiometry N", "setting": "[2]", "result": 14}]}]}
